T1: extracellular region of human BCMA with C-terminal His tag (human, UniProt Q02223 1-54)
T1 construct: No linker between the extracellular region and the tag is stated; also called hBCMA-his; hBCMA-His
T1 sequence: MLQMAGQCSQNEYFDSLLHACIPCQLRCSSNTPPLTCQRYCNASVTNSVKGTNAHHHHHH

T2: BCMA on the surface of NCI-H929 human plasma cell leukemia cell (human, UniProt Q02223 1-184)
T2 construct: whole, on cells; also called BCMA positive NCI-H929 cells; BCMA-positive tumor cells
T2 sequence (looked up): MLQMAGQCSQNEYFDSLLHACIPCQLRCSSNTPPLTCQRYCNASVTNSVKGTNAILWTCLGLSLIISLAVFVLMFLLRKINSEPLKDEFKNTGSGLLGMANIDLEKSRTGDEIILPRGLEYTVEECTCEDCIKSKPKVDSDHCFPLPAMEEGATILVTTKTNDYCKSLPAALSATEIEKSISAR


How the values were obtained:
[1] = molecular target: T3, CD3E on the surface of Jurkat human acute T lymphocyte leukemia cell (human, UniProt P07766 23-207); experiment: flow cytometry on Jurkat cells, goat anti-human IgG-FITC
T3 construct: whole, on cells; also called CD3 positive Jurkat cells
T3 sequence (P07766 23-207): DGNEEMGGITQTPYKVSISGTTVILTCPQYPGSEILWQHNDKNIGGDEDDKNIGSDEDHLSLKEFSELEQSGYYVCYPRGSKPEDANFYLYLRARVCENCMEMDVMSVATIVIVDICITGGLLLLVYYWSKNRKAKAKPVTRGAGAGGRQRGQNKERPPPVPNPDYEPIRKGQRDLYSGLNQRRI
Method: (§1) Jurkat human acute T-lymphocyte leukemia cells (Cell Resource Center, Institute of Basic Medicine, Chinese Academy of Medical Sciences) in the logarithmic growth phase were harvested, centrifuged, and resuspended in PBS buffer containing 1% BSA to 2×10⁶ cells/mL, and plated at 100 μL/well in 96-well V bottom plates. […] Next, the cells were washed three times with 200 μL of PBS solution, and suspended in 100 μL of PBS solution. Thereafter, the FITC channel was detected by flow cytometer (ACEA, Novocyte).

[2] = molecular target: T1, extracellular region of human BCMA with …; experiment: bridging ELISA: CD3E-FcK/CD3D-FcH coated, antibody, then BCMA-His, detected with HRP anti-His
Method: A 96-well ELISA plate was coated with CD3E-FcK/CD3D-FcH antigen (3 μg/mL, 100 μL/well), and was coated overnight in a refrigerator at 4° C. […] The ELISA plate was washed with PBS-0.1% Tween 20, followed by addition of BCMA-His antigen (1 μg/mL, 100 μL/well) and incubation at 37° C. for 1 hour. The ELISA plate was washed with PBS-0.1% Tween 20, followed by addition of HRP mouse anti-his IgG (Beijing ComWin Biotech Co., Ltd., cw0285M) and incubation at 37° C. for 1 hour. The ELISA plate was washed with PBS-0.1% Tween 20, and OPD substrate color development solution was added. The color development was terminated with 1 M H2SO4 after 5-10 minutes.

[3] = molecular target: T2, BCMA on the surface of NCI-H929 human …; experiment: flow cytometry on NCI-H929 cells, goat anti-human IgG-FITC
Method: as §1, with “NCI-H929” for “Jurkat”, “plasma cell” for “acute T-lymphocyte”, “in” for “in the”

| Binder | EC50 (read off the curve) [1] [nM] | binding result [2] | EC50 (read off the curve) [3] [nM] |
| --- | --- | --- | --- |
| anti-CD3E monoclonal antibody H10B7+L9B9 (antibody, human IgG1, kappa, V domains shown) VH: QVQLVESGGGVVQPGRSLRLSCAASGFKFSGYGMHWVRQAPGKGLEWVAVIWFDGSRKYYVDSVKGRFTISRDNSKNTLYLQMNSLRAEDTAVYYCARQMGYWHFGLWGRGTLVTVSS VL: DIQMTQSPSSLSASVGDRVTITCRASQSISNYLTWYQQKPGKAPKLLIYEASSRPSGVPSRFSGSGSGTDFTLTISSLQPEDFATYYCQQWSRLPVTFGQGTKVEIKR | ~1 | no binding |  |
| anti-BCMA monoclonal antibody H13F1+L9B9 (antibody, human IgG1, kappa, V domains shown, also called mutant of C4 (IgG1 subtype)) VH: QVQLVQSGAEVKKPGSSVKVSCKASGYTFTNYWMHWVRQAPGQGLEWMGATYRGHSDTYYNQKFKGRVTITADKSTSTAYMELSSLRSEDTAVYYCTRGAVYAGYDVLDYWGQGTTVTVSS VL: DIQMTQSPSSLSASVGDRVTITCRASQSISNYLTWYQQKPGKAPKLLIYEASSRPSGVPSRFSGSGSGTDFTLTISSLQPEDFATYYCQQWSRLPVTFGQGTKVEIKR |  |  | ~8 |
| bispecific antibody CD3ExBCMA (bispecific antibody, human IgG1, kappa, It is a knob-into-hole IgG1 heterodimer with a common light chain; also called CD3E × BCMA; CD3 × BCMA) heavy 1: QVQLVESGGGVVQPGRSLRLSCAASGFKFSGYGMHWVRQAPGKGLEWVAVIWFDGSRKYYVDSVKGRFTISRDNSKNTLYLQMNSLRAEDTAVYYCARQMGYWHFGLWGRGTLVTVSSASTKGPSVFPLAPSSKSTSGGTAALGCLVKDYFPEPVTVSWNSGALTSGVHTFPAVLQSSGLYSLSSVVTVPSSSLGTQTYICNVNHKPSNTKVDKRVEPKSCDKTHTCPPCPAPEFEGGPSVFLFPPKPKDTLMISRTPEVTCVVVDVSHEDPEVKFNWYVDGVEVHNAKTKPREEQYNSTYRVVSVLTVLHQDWLNGKEYKCKVSNKALPASIEKTISKAKGQPREPQVYTLPPCREEMTKNQVSLWCLVKGFYPSDIAVEWESNGQPENNYKTTPPVLDSDGSFFLYSKLTVDKSRWQQGNVFSCSVMHEALHNHYTQKSLSLSPGK heavy 2: QVQLVQSGAEVKKPGSSVKVSCKASGYTFTNYWMHWVRQAPGQGLEWMGATYRGHSDTYYNQKFKGRVTITADKSTSTAYMELSSLRSEDTAVYYCTRGAVYAGYDVLDYWGQGTTVTVSSASTKGPSVFPLAPSSKSTSGGTAALGCLVKDYFPEPVTVSWNSGALTSGVHTFPAVLQSSGLYSLSSVVTVPSSSLGTQTYICNVNHKPSNTKVDKRVEPKSCDKTHTCPPCPAPEFEGGPSVFLFPPKPKDTLMISRTPEVTCVVVDVSHEDPEVKFNWYVDGVEVHNAKTKPREEQYNSTYRVVSVLTVLHQDWLNGKEYKCKVSNKALPASIEKTISKAKGQPREPQVCTLPPSREEMTKNQVSLSCAVKGFYPSDIAVEWESNGQPENNYKTTPPVLDSDGSFFLVSKLTVDKSRWQQGNVFSCSVMHEALHNHYTQKSLSLSPGK light: not shown |  |  | ~8 |
